Reference: PMC2756758
Where “and” joins values, the source holds several entries; their conditions need not be identical. Equal entries are not always repeated.

Target: T1, Myc-ArPIKfyve^WT (human), Q08AM6
T1 chain: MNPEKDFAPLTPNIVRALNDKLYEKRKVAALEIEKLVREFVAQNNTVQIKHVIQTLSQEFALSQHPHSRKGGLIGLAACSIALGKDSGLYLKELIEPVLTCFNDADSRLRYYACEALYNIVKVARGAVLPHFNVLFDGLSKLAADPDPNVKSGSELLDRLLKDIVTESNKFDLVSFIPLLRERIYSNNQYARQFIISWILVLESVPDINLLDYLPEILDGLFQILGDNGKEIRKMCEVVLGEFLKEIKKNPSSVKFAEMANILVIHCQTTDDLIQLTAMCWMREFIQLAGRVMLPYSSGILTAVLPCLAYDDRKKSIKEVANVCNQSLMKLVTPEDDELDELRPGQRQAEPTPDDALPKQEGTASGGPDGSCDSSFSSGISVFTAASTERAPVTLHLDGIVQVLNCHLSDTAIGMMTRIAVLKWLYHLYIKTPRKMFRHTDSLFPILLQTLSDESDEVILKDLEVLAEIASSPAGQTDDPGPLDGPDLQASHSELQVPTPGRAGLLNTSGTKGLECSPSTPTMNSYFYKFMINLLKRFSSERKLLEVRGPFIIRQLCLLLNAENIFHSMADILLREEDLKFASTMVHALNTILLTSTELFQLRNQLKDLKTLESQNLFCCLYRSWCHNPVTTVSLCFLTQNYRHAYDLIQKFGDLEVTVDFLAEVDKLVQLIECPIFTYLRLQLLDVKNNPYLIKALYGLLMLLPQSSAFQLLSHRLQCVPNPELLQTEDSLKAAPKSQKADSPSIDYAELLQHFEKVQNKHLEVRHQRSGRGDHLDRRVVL
Assay: cross-linking
Details: remark: other sources report otherwise

B1: Myc-ArPIKfyve^WT, Q08AM6 1-782 (natural protein)
chain: T1 chain
  stoichiometry N: 2 and 3
